Biological target: Factor X (FX), P00742
Sequence (P00742 whole entry, looked up): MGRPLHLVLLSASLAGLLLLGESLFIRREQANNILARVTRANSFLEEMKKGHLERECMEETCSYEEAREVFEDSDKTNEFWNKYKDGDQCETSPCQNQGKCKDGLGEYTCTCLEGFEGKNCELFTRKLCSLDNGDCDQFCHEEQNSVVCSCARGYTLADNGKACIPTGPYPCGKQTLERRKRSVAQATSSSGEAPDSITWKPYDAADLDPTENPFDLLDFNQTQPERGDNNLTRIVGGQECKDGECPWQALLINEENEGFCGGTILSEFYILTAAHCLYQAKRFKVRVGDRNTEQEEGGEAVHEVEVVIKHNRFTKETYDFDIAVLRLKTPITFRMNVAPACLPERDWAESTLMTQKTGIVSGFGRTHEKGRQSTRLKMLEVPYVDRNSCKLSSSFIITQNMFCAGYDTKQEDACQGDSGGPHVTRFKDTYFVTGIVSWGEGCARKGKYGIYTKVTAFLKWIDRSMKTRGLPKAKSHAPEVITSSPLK

B1: FIXa variant Y155F/R318Y/R338E/R403E (mature FIX numbering) (protein)
chain 1: YNSGKLEEFVQGNLERECMEEKCSFEEAREVFENTERTTEFWKQYVDGDQCESNPCLNGGSCKDDINSYECWCPFGFEGKNCELDVTCNIKNGRCEQFCKNSADNKVVCSCTEGYRLAENQKSCEPAVPFPCGRVSVSQTSKLTR
chain 2: VVGGEDAKPGQFPWQVVLNGKVDAFCGGSIVNEKWIVTAAHCVETGVKITVVAGEHNIEETEHTEQKRNVIRIIPHHNYNAAINKYNHDIALLELDEPLVLNSYVTPICIADKEYTNIFLKFGSGYVSGWGRVFHKGYSALVLQYLRVPLVDRATCLESTKFTIYNNMFCAGFHEGGRDSCQGDSGGPHVTEVEGTSFLTGIISWGEECAMKGKYGIYTKVSEYVNWIKEKTKLT
With B1 the KM of FX activation by FIXa in the Xase complex (FVIIIa, PC/PS vesicles, Ca2+) was 0.0671 µM.

B2: FIXa variant D203N/F205T/R318Y (mature FIX numbering) (protein)
chain 1: YNSGKLEEFVQGNLERECMEEKCSFEEAREVFENTERTTEFWKQYVDGDQCESNPCLNGGSCKDDINSYECWCPFGFEGKNCELDVTCNIKNGRCEQFCKNSADNKVVCSCTEGYRLAENQKSCEPAVPFPCGRVSVSQTSKLTR
chain 2: VVGGEDAKPGQFPWQVVLNGKVNATCGGSIVNEKWIVTAAHCVETGVKITVVAGEHNIEETEHTEQKRNVIRIIPHHNYNAAINKYNHDIALLELDEPLVLNSYVTPICIADKEYTNIFLKFGSGYVSGWGRVFHKGYSALVLQYLRVPLVDRATCLRSTKFTIYNNMFCAGFHEGGRDSCQGDSGGPHVTEVEGTSFLTGIISWGEECAMKGKYGIYTKVSRYVNWIKEKTKLT
With B2 the KM of FX activation by FIXa in the Xase complex (FVIIIa, PC/PS vesicles, Ca2+) was 0.0475 µM.

B3: FIXa variant R318Y/R403E/E410N (mature FIX numbering) (protein)
chain 1: YNSGKLEEFVQGNLERECMEEKCSFEEAREVFENTERTTEFWKQYVDGDQCESNPCLNGGSCKDDINSYECWCPFGFEGKNCELDVTCNIKNGRCEQFCKNSADNKVVCSCTEGYRLAENQKSCEPAVPFPCGRVSVSQTSKLTR
chain 2: VVGGEDAKPGQFPWQVVLNGKVDAFCGGSIVNEKWIVTAAHCVETGVKITVVAGEHNIEETEHTEQKRNVIRIIPHHNYNAAINKYNHDIALLELDEPLVLNSYVTPICIADKEYTNIFLKFGSGYVSGWGRVFHKGYSALVLQYLRVPLVDRATCLRSTKFTIYNNMFCAGFHEGGRDSCQGDSGGPHVTEVEGTSFLTGIISWGEECAMKGKYGIYTKVSEYVNWIKNKTKLT
B3 was tested, and the KM of FX activation by FIXa in the Xase complex (FVIIIa, PC/PS vesicles, Ca2+) was 0.0942 µM.

B4: FIXa variant D203N/F205T/E410N (mature FIX numbering) (protein)
chain 1: YNSGKLEEFVQGNLERECMEEKCSFEEAREVFENTERTTEFWKQYVDGDQCESNPCLNGGSCKDDINSYECWCPFGFEGKNCELDVTCNIKNGRCEQFCKNSADNKVVCSCTEGYRLAENQKSCEPAVPFPCGRVSVSQTSKLTR
chain 2: VVGGEDAKPGQFPWQVVLNGKVNATCGGSIVNEKWIVTAAHCVETGVKITVVAGEHNIEETEHTEQKRNVIRIIPHHNYNAAINKYNHDIALLELDEPLVLNSYVTPICIADKEYTNIFLKFGSGYVSGWGRVFHKGRSALVLQYLRVPLVDRATCLRSTKFTIYNNMFCAGFHEGGRDSCQGDSGGPHVTEVEGTSFLTGIISWGEECAMKGKYGIYTKVSRYVNWIKNKTKLT
Protein B4 has a KM of FX activation by FIXa in the Xase complex (FVIIIa, PC/PS vesicles, Ca2+) of 0.0455 µM.

B5: FIXa variant D203N/F205T/K228N (mature FIX numbering) (protein)
chain 1: YNSGKLEEFVQGNLERECMEEKCSFEEAREVFENTERTTEFWKQYVDGDQCESNPCLNGGSCKDDINSYECWCPFGFEGKNCELDVTCNIKNGRCEQFCKNSADNKVVCSCTEGYRLAENQKSCEPAVPFPCGRVSVSQTSKLTR
chain 2: VVGGEDAKPGQFPWQVVLNGKVNATCGGSIVNEKWIVTAAHCVETGVNITVVAGEHNIEETEHTEQKRNVIRIIPHHNYNAAINKYNHDIALLELDEPLVLNSYVTPICIADKEYTNIFLKFGSGYVSGWGRVFHKGRSALVLQYLRVPLVDRATCLRSTKFTIYNNMFCAGFHEGGRDSCQGDSGGPHVTEVEGTSFLTGIISWGEECAMKGKYGIYTKVSRYVNWIKEKTKLT
Work on B5 yielded a KM of FX activation by FIXa in the Xase complex (FVIIIa, PC/PS vesicles, Ca2+) of 0.0399 µM.

B6: FIXa variant Y155F/R318Y/R338E/E410N (mature FIX numbering) (protein)
chain 1: YNSGKLEEFVQGNLERECMEEKCSFEEAREVFENTERTTEFWKQYVDGDQCESNPCLNGGSCKDDINSYECWCPFGFEGKNCELDVTCNIKNGRCEQFCKNSADNKVVCSCTEGYRLAENQKSCEPAVPFPCGRVSVSQTSKLTR
chain 2: VVGGEDAKPGQFPWQVVLNGKVDAFCGGSIVNEKWIVTAAHCVETGVKITVVAGEHNIEETEHTEQKRNVIRIIPHHNYNAAINKYNHDIALLELDEPLVLNSYVTPICIADKEYTNIFLKFGSGYVSGWGRVFHKGYSALVLQYLRVPLVDRATCLESTKFTIYNNMFCAGFHEGGRDSCQGDSGGPHVTEVEGTSFLTGIISWGEECAMKGKYGIYTKVSRYVNWIKNKTKLT
For B6, the KM of FX activation by FIXa in the Xase complex (FVIIIa, PC/PS vesicles, Ca2+) was 0.016 µM.

B7: FIXa variant D203N/F205T/R338A (mature FIX numbering) (protein)
chain 1: YNSGKLEEFVQGNLERECMEEKCSFEEAREVFENTERTTEFWKQYVDGDQCESNPCLNGGSCKDDINSYECWCPFGFEGKNCELDVTCNIKNGRCEQFCKNSADNKVVCSCTEGYRLAENQKSCEPAVPFPCGRVSVSQTSKLTR
chain 2: VVGGEDAKPGQFPWQVVLNGKVNATCGGSIVNEKWIVTAAHCVETGVKITVVAGEHNIEETEHTEQKRNVIRIIPHHNYNAAINKYNHDIALLELDEPLVLNSYVTPICIADKEYTNIFLKFGSGYVSGWGRVFHKGRSALVLQYLRVPLVDRATCLASTKFTIYNNMFCAGFHEGGRDSCQGDSGGPHVTEVEGTSFLTGIISWGEECAMKGKYGIYTKVSRYVNWIKEKTKLT
B7 showed a KM of FX activation by FIXa in the Xase complex (FVIIIa, PC/PS vesicles, Ca2+) of 0.0385 µM.

B8: FIXa variant D203N/F205T/R338E/R403E (mature FIX numbering) (protein)
chain 1: YNSGKLEEFVQGNLERECMEEKCSFEEAREVFENTERTTEFWKQYVDGDQCESNPCLNGGSCKDDINSYECWCPFGFEGKNCELDVTCNIKNGRCEQFCKNSADNKVVCSCTEGYRLAENQKSCEPAVPFPCGRVSVSQTSKLTR
chain 2: VVGGEDAKPGQFPWQVVLNGKVNATCGGSIVNEKWIVTAAHCVETGVKITVVAGEHNIEETEHTEQKRNVIRIIPHHNYNAAINKYNHDIALLELDEPLVLNSYVTPICIADKEYTNIFLKFGSGYVSGWGRVFHKGRSALVLQYLRVPLVDRATCLESTKFTIYNNMFCAGFHEGGRDSCQGDSGGPHVTEVEGTSFLTGIISWGEECAMKGKYGIYTKVSEYVNWIKEKTKLT
With B8 the KM of FX activation by FIXa in the Xase complex (FVIIIa, PC/PS vesicles, Ca2+) was 0.0511 µM.

B9: FIXa variant K228N/R338E/R403E (mature FIX numbering) (protein)
chain 1: YNSGKLEEFVQGNLERECMEEKCSFEEAREVFENTERTTEFWKQYVDGDQCESNPCLNGGSCKDDINSYECWCPFGFEGKNCELDVTCNIKNGRCEQFCKNSADNKVVCSCTEGYRLAENQKSCEPAVPFPCGRVSVSQTSKLTR
chain 2: VVGGEDAKPGQFPWQVVLNGKVDAFCGGSIVNEKWIVTAAHCVETGVNITVVAGEHNIEETEHTEQKRNVIRIIPHHNYNAAINKYNHDIALLELDEPLVLNSYVTPICIADKEYTNIFLKFGSGYVSGWGRVFHKGRSALVLQYLRVPLVDRATCLESTKFTIYNNMFCAGFHEGGRDSCQGDSGGPHVTEVEGTSFLTGIISWGEECAMKGKYGIYTKVSEYVNWIKEKTKLT
B9 showed a KM of FX activation by FIXa in the Xase complex (FVIIIa, PC/PS vesicles, Ca2+) of 0.0592 µM.

B10: FIXa variant D203N/F205T/R338E (mature FIX numbering) (protein)
chain 1: YNSGKLEEFVQGNLERECMEEKCSFEEAREVFENTERTTEFWKQYVDGDQCESNPCLNGGSCKDDINSYECWCPFGFEGKNCELDVTCNIKNGRCEQFCKNSADNKVVCSCTEGYRLAENQKSCEPAVPFPCGRVSVSQTSKLTR
chain 2: VVGGEDAKPGQFPWQVVLNGKVNATCGGSIVNEKWIVTAAHCVETGVKITVVAGEHNIEETEHTEQKRNVIRIIPHHNYNAAINKYNHDIALLELDEPLVLNSYVTPICIADKEYTNIFLKFGSGYVSGWGRVFHKGRSALVLQYLRVPLVDRATCLESTKFTIYNNMFCAGFHEGGRDSCQGDSGGPHVTEVEGTSFLTGIISWGEECAMKGKYGIYTKVSRYVNWIKEKTKLT
B10 showed a KM of FX activation by FIXa in the Xase complex (FVIIIa, PC/PS vesicles, Ca2+) of 0.0241 µM.

B11: FIXa variant Y155F/R318Y/R403E/E410N (mature FIX numbering) (protein)
chain 1: YNSGKLEEFVQGNLERECMEEKCSFEEAREVFENTERTTEFWKQYVDGDQCESNPCLNGGSCKDDINSYECWCPFGFEGKNCELDVTCNIKNGRCEQFCKNSADNKVVCSCTEGYRLAENQKSCEPAVPFPCGRVSVSQTSKLTR
chain 2: VVGGEDAKPGQFPWQVVLNGKVDAFCGGSIVNEKWIVTAAHCVETGVKITVVAGEHNIEETEHTEQKRNVIRIIPHHNYNAAINKYNHDIALLELDEPLVLNSYVTPICIADKEYTNIFLKFGSGYVSGWGRVFHKGYSALVLQYLRVPLVDRATCLRSTKFTIYNNMFCAGFHEGGRDSCQGDSGGPHVTEVEGTSFLTGIISWGEECAMKGKYGIYTKVSEYVNWIKNKTKLT
B11 gave a KM of FX activation by FIXa in the Xase complex (FVIIIa, PC/PS vesicles, Ca2+) of 0.111 µM.

B12: FIXa variant D104N/K106S/R318Y/R338E/E410N (mature FIX numbering) (protein)
chain 1: YNSGKLEEFVQGNLERECMEEKCSFEEAREVFENTERTTEFWKQYVDGDQCESNPCLNGGSCKDDINSYECWCPFGFEGKNCELDVTCNIKNGRCEQFCKNSANNSVVCSCTEGYRLAENQKSCEPAVPFPCGRVSVSQTSKLTR
chain 2: VVGGEDAKPGQFPWQVVLNGKVDAFCGGSIVNEKWIVTAAHCVETGVKITVVAGEHNIEETEHTEQKRNVIRIIPHHNYNAAINKYNHDIALLELDEPLVLNSYVTPICIADKEYTNIFLKFGSGYVSGWGRVFHKGYSALVLQYLRVPLVDRATCLESTKFTIYNNMFCAGFHEGGRDSCQGDSGGPHVTEVEGTSFLTGIISWGEECAMKGKYGIYTKVSRYVNWIKNKTKLT
For B12, the KM of FX activation by FIXa in the Xase complex (FVIIIa, PC/PS vesicles, Ca2+) was 0.0189 µM.

B13: FIXa variant K228N/R318Y/E410N (mature FIX numbering) (protein)
chain 1: YNSGKLEEFVQGNLERECMEEKCSFEEAREVFENTERTTEFWKQYVDGDQCESNPCLNGGSCKDDINSYECWCPFGFEGKNCELDVTCNIKNGRCEQFCKNSADNKVVCSCTEGYRLAENQKSCEPAVPFPCGRVSVSQTSKLTR
chain 2: VVGGEDAKPGQFPWQVVLNGKVDAFCGGSIVNEKWIVTAAHCVETGVNITVVAGEHNIEETEHTEQKRNVIRIIPHHNYNAAINKYNHDIALLELDEPLVLNSYVTPICIADKEYTNIFLKFGSGYVSGWGRVFHKGYSALVLQYLRVPLVDRATCLRSTKFTIYNNMFCAGFHEGGRDSCQGDSGGPHVTEVEGTSFLTGIISWGEECAMKGKYGIYTKVSRYVNWIKNKTKLT
Work on B13 yielded a KM of FX activation by FIXa in the Xase complex (FVIIIa, PC/PS vesicles, Ca2+) of 0.042 µM.

B14: FIXa variant R318Y/R338E/E410N (mature FIX numbering) (protein)
chain 1: YNSGKLEEFVQGNLERECMEEKCSFEEAREVFENTERTTEFWKQYVDGDQCESNPCLNGGSCKDDINSYECWCPFGFEGKNCELDVTCNIKNGRCEQFCKNSADNKVVCSCTEGYRLAENQKSCEPAVPFPCGRVSVSQTSKLTR
chain 2: VVGGEDAKPGQFPWQVVLNGKVDAFCGGSIVNEKWIVTAAHCVETGVKITVVAGEHNIEETEHTEQKRNVIRIIPHHNYNAAINKYNHDIALLELDEPLVLNSYVTPICIADKEYTNIFLKFGSGYVSGWGRVFHKGYSALVLQYLRVPLVDRATCLESTKFTIYNNMFCAGFHEGGRDSCQGDSGGPHVTEVEGTSFLTGIISWGEECAMKGKYGIYTKVSRYVNWIKNKTKLT
B14 showed a KM of FX activation by FIXa in the Xase complex (FVIIIa, PC/PS vesicles, Ca2+) of 0.0139 µM.

— patent publication US20210230570
